The record followed here is article PMC10661072.

Test [1] deals with recombinant core spidroin eADF4(C16) (Araneus diadematus (engineered mimic of its fibroin 4 core domain)). The test can be described thus: turbidity at 340 nm (fibrillization kinetics), global fit with AmyloFit; 10-40 uM eADF4(C16) in 150 mM Na2SO4, 20 C, without and with 0.5% (w/w) pre-formed seeds; secondary nucleation model, nc set to 2 and n2 to 1; monomers to fibrils.
Test [2] has the same target. The test can be described thus: turbidity at 340 nm (fibrillization kinetics), global fit with AmyloFit; 10-40 uM eADF4(C16) in 150 mM NaF, 20 C, without and with 0.5% (w/w) pre-formed seeds; secondary nucleation model, nc set to 2 and n2 to 1; monomers to fibrils.

Take recombinant core spidroin eADF4(C16): in test [1], the k2 (rate constant of secondary nucleation) came out at 7.08 M⁻¹ s⁻¹; the k+ (rate constant of fibril elongation) turned out to be 2.85e+07 M⁻¹ s⁻¹; the k+k2 (elongation x secondary nucleation, combined rate parameter) turned out to be 9.04e+07 M^−2 s^−2; the k+kn (elongation x primary nucleation, combined rate parameter) turned out to be 1.35e+06 M^−2 s^−2. Besides, in test [1], the kn (rate constant of primary nucleation) came out at 1.42 M⁻¹ s⁻¹. Further, in test [2], the k2 (rate constant of secondary nucleation) turned out to be 0.598 M⁻¹ s⁻¹; the k+ (rate constant of fibril elongation) worked out at 7.26e+07 M⁻¹ s⁻¹; the k+k2 (elongation x secondary nucleation, combined rate parameter) came out at 3.34e+07 M^−2 s^−2; the k+kn (elongation x primary nucleation, combined rate parameter) was determined as 420000 M^−2 s^−2. The kn (rate constant of primary nucleation) in test [2] worked out at 0.00585 M⁻¹ s⁻¹.
